The record followed here is patent US20100180464A1, “Cores and microcapsules suitable for parenteral administration as well as process for their manufacture” (STRATOSPHERE PHARMA AB, priority 2007, published 2010).

What all share (format): physicochemical
Data set [1] can be described thus: Electrophoresis (SDS-PAGE 12 and 18%) with silver staining of proteins after encapsulation in cores. Conditions: cores with sodium hyaluronate and rice starch diluent particles; carbon dioxide atomisation; cold medium ethanol or ethanol containing solid carbon dioxide; dried with air at room temperature. The procedure: (§1) Cores suitable for air suspension coating and containing either human growth hormone (hGH) or erythropoietin (EPO) were prepared by essentially according to Example 1 using carbon dioxide for atomisation but with ethanol or ethanol containing solid carbon dioxide as the cold medium. For hGH the composition contained sodium hyaluronate (1%, about 4.1 g), diluent particles (rice starch, Sigma 57260, 1.83 g) and hGH (217 mg) and for EPO sodium hyaluronate (about 3.4), diluent particles (about 1.48 g) and EPO (11 mg). There was substantial stirring in the cold medium in the presence of solid carbon dioxide and little, if any, backflow of gas. The cold medium was removed by filtration and the cores dried using air at room temperature and atmospheric pressure. Cores suitable for air suspension coating were formed containing hGH (624 mg) and EPO (468 mg). […] No increase in the content of dimer or polymer forms of hGH were observed by HPLC size exclusion chromatography (SEC-HPLC, TSK2000 SWx1, Tosoh Corporation) according to Reslow et al (Sustained release of human growth hormone (hGH) from PLG-coated starch microspheres. Drug Delivery Systems and Sciences, 2002, 2,1 103-109).

The nature of data set [2]: Western blotting for dimer content. As for the experimental part: as §1
Background: In western blotting, separated proteins are transferred to a membrane and probed.

Data set [3] is described as follows: HPLC size exclusion chromatography (SEC-HPLC, TSK2000 SWx1) for dimer or polymer forms. Particulars: cores prepared per Example 10. As for the experimental part:
as §1

In the case of erythropoietin [EPO], the “degradation products detected by electrophoresis” value in data set [1] is listed as “No degradation products”. Also, the “increase in dimer content” value in data set [2] (absence of carbon dioxide in the cold medium (ethanol)) was “clearly higher increase”; in data set [2] (carbon dioxide present in the cold medium (ethanol)), “slight increase”.
As to human growth hormone [hGH], the “degradation products detected by electrophoresis” value in data set [1] is given as “No degradation products”. The “increase in the content of dimer or polymer forms” value in data set [3] is given as “No increase”.
